From patent US20250092426, “CAS ENDONUCLEASES AND RELATED METHODS” (Flagship Pioneering Innovations VII, LLC, published 2025)

Biological target: T1, CasEnd-16 (synthetic construct)
T1 chain: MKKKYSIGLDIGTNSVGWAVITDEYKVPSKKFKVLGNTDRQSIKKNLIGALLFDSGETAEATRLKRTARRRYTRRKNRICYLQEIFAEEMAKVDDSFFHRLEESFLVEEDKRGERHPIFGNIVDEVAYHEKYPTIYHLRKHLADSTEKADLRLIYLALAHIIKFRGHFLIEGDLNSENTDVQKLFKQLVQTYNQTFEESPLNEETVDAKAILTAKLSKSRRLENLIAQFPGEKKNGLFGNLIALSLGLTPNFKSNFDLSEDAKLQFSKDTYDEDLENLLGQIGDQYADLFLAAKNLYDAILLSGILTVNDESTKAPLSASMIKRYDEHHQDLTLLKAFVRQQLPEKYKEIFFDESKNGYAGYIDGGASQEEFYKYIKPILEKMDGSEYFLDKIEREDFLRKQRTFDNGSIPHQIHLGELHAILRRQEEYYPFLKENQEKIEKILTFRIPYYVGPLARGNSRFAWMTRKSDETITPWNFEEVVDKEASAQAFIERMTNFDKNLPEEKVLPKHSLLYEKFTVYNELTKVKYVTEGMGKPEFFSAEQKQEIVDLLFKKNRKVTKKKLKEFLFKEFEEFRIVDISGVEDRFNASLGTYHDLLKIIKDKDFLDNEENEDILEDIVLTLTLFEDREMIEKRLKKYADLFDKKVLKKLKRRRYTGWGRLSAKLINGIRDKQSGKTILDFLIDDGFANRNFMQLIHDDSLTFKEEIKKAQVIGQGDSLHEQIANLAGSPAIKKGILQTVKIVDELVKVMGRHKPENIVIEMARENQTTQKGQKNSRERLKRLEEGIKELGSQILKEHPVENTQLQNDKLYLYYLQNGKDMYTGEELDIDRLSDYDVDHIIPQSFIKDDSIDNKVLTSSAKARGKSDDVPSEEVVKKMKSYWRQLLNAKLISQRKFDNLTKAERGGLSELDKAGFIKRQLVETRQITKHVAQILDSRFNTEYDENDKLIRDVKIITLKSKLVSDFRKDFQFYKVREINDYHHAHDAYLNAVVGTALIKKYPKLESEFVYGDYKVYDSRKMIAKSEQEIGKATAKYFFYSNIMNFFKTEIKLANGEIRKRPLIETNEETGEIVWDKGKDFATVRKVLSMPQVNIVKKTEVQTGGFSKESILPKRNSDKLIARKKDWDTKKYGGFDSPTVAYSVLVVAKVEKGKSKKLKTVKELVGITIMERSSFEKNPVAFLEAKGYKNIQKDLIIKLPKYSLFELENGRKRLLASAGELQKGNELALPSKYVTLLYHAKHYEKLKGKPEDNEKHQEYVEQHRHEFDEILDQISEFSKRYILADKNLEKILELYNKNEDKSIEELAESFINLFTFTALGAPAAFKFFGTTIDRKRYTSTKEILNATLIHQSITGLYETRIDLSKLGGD
Assay: cell_activity; +++; HEK293T; PAM not stated
Procedure, shortened: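 BFP-to-GFP conversion via reverse transcriptase fusion with each Cas endonuclease plus template RNA: 200 ng of each plasmid nucleofected into 250,000 BFP-expressing HEK293T cells (program DS-150). Percent GFP+ cells by flow cytometry at day 4 measured editing.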

B1: BFP-to-GFP template RNA ; BFP reporter protospacer (ssRNA ; dsDNA)
RNA: GCCGAAGCACUGCACGCCGUGUUUUAGAGCUAGAAAUAGCAAGUUAAAAUAAGGCUAGUCCGUUAUCAACUUGAAAAAGUGGCACCGAGUCGGUGCACCCUGACGUACGGCGUGCAGUGCUU
DNA 1: GCCGAAGCACTGCACGCCGT
DNA 2: ACGGCGTGCAGTGCTTCGGC
- activity: ≥ 100 % of reference
